Measurements published in US20180086849A1 (Hoffmann-La Roche, published 2018).

T1: human CEA (Carcinoembryonic antigen) on cells (human, UniProt P06731 35-685)
T1 sequence (looked up): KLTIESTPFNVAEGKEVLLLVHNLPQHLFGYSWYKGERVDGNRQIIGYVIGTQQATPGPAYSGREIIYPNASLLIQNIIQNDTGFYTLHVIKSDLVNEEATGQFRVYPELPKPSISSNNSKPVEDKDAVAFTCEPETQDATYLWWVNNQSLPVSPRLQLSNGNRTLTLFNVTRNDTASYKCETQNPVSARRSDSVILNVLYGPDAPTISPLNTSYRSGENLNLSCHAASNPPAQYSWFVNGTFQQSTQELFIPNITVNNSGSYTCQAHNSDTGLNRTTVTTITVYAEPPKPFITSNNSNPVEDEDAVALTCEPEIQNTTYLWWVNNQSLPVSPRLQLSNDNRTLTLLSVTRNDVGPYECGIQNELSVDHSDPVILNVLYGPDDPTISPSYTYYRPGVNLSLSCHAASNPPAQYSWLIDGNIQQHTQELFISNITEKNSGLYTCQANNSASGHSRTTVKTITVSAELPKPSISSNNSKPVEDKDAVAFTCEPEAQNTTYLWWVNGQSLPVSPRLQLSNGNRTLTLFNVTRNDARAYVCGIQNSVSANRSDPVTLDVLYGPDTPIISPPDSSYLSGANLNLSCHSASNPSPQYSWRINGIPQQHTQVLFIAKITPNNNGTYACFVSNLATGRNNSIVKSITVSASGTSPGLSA

B1: 2+1 IgG Crossfab; VH/VL exchange (LC007/V9), anti-MCSP/anti-huCD3 (bispecific antibody)
chain 1: not shown
chain 2: DIVLTQSPSSLSASLGDRVTISCSASQGIRNYLNWYQQRPDGTVKLLIYYTSSLHSGVPSRFSGSGSGTDYSLTISNLEPEDIATYYCQQYSKLPWTFGGGTKLEIKRTVAAPSVFIFPPSDEQLKSGTASVVCLLNNFYPREAKVQWKVDNALQSGNSQESVTEQDSKDSTYSLSSTLTLSKADYEKHKVYACEVTHQGLSSPVTKSFNRGEC
chain 3: DIQMTQSPSSLSASVGDRVTITCRASQDIRNYLNWYQQKPGKAPKLLIYYTSRLESGVPSRFSGSGSGTDYTLTISSLQPEDFATYYCQQGNTLPWTFGQGTKVEIKSSASTKGPSVFPLAPSSKSTSGGTAALGCLVKDYFPEPVTVSWNSGALTSGVHTFPAVLQSSGLYSLSSVVTVPSSSLGTQTYICNVNHKPSNTKVDKKVEPKSCGGGGSGGGGSEVQLQESGPGLVKPSQSLSLTCSVTGYSITSGYYWNWIRQFPGNKLEWMGYITYDGSNNYNPSLKNRISITRDTSKNQFFLKLNSVTTEDTATYYCADFDYWGQGTTLTVSSASTKGPSVFPLAPSSKSTSGGTAALGCLVKDYFPEPVTVSWNSGALTSGVHTFPAVLQSSGLYSLSSVVTVPSSSLGTQTYICNVNHKPSNTKVDKKVEPKSCDKTHTCPPCPAPEAAGGPSVFLFPPKPKDTLMISRTPEVTCVVVDVSHEDPEVKFNWYVDGVEVHNAKTKPREEQYNSTYRVVSVLTVLHQDWLNGKEYKCKVSNKALGAPIEKTISKAKGQPREPQVCTLPPSRDELTKNQVSLSCAVKGFYPSDIAVEWESNGQPENNYKTTPPVLDSDGSFFLVSKLTVDKSRWQQGNVFSCSVMHEALHNHYTQKSLSLSPGK
chain 4: EVQLVESGGGLVQPGGSLRLSCAASGYSFTGYTMNWVRQAPGKGLEWVALINPYKGVSTYNQKFKDRFTISVDKSKNTAYLQMNSLRAEDTAVYYCARSGYYGDSDWYFDVWGQGTLVTVSSASVAAPSVFIFPPSDEQLKSGTASVVCLLNNFYPREAKVQWKVDNALQSGNSQESVTEQDSKDSTYSLSSTLTLSKADYEKHKVYACEVTHQGLSSPVTKSFNRGEC
B2: 2+1 IgG Crossfab; CL/CH1 exchange (LC007/anti-CD3), anti-MCSP/anti-huCD3 (bispecific antibody)
chain 1: B1 chain 2
chain 2: EVQLQESGPGLVKPSQSLSLTCSVTGYSITSGYYWNWIRQFPGNKLEWMGYITYDGSNNYNPSLKNRISITRDTSKNQFFLKLNSVTTEDTATYYCADFDYWGQGTTLTVSSASTKGPSVFPLAPSSKSTSGGTAALGCLVKDYFPEPVTVSWNSGALTSGVHTFPAVLQSSGLYSLSSVVTVPSSSLGTQTYICNVNHKPSNTKVDKKVEPKSCDKTHTCPPCPAPEAAGGPSVFLFPPKPKDTLMISRTPEVTCVVVDVSHEDPEVKFNWYVDGVEVHNAKTKPREEQYNSTYRVVSVLTVLHQDWLNGKEYKCKVSNKALGAPIEKTISKAKGQPREPQVCTLPPSRDELTKNQVSLSCAVKGFYPSDIAVEWESNGQPENNYKTTPPVLDSDGSFFLVSKLTVDKSRWQQGNVFSCSVMHEALHNHYTQKSLSLSPGK
chain 3: QAVVTQESALTTSPGETVTLTCRSSTGAVTTSNYANWVQEKPDHLFTGLIGGTNKRAPGVPARFSGSLIGDKAALTITGAQTEDEAIYFCALWYSNLWVFGGGTKLTVLSSASTKGPSVFPLAPSSKSTSGGTAALGCLVKDYFPEPVTVSWNSGALTSGVHTFPAVLQSSGLYSLSSVVTVPSSSLGTQTYICNVNHKPSNTKVDKKVEPKSC
chain 4: not shown
B3: 2+1 IgG Crossfab, inverted; CL/CH1 exchange (LC007/anti-CD3), anti-MCSP/anti-huCD3 (bispecific antibody)
chain 1: B1 chain 2
chain 2: B2 chain 2
chain 3: B2 chain 3
chain 4: not shown
B4: 2+1 IgG Crossfab, inverted; CL/CH1 exchange (CH1A1A/V9), anti-CEA/anti-huCD3 (bispecific antibody)
chain 1: QVQLVQSGAEVKKPGASVKVSCKASGYTFTEFGMNWVRQAPGQGLEWMGWINTKTGEATYVEEFKGRVTFTTDTSTSTAYMELRSLRSDDTAVYYCARWDFAYYVEAMDYWGQGTTVTVSSASTKGPSVFPLAPSSKSTSGGTAALGCLVKDYFPEPVTVSWNSGALTSGVHTFPAVLQSSGLYSLSSVVTVPSSSLGTQTYICNVNHKPSNTKVDKKVEPKSCDKTHTCPPCPAPEAAGGPSVFLFPPKPKDTLMISRTPEVTCVVVDVSHEDPEVKFNWYVDGVEVHNAKTKPREEQYNSTYRVVSVLTVLHQDWLNGKEYKCKVSNKALGAPIEKTISKAKGQPREPQVCTLPPSRDELTKNQVSLSCAVKGFYPSDIAVEWESNGQPENNYKTTPPVLDSDGSFFLVSKLTVDKSRWQQGNVFSCSVMHEALHNHYTQKSLSLSPGK
chain 2: DIQMTQSPSSLSASVGDRVTITCKASAAVGTYVAWYQQKPGKAPKLLIYSASYRKRGVPSRFSGSGSGTDFTLTISSLQPEDFATYYCHQYYTYPLFTFGQGTKLEIKRTVAAPSVFIFPPSDEQLKSGTASVVCLLNNFYPREAKVQWKVDNALQSGNSQESVTEQDSKDSTYSLSSTLTLSKADYEKHKVYACEVTHQGLSSPVTKSFNRGEC
chain 3: DIQMTQSPSSLSASVGDRVTITCRASQDIRNYLNWYQQKPGKAPKLLIYYTSRLESGVPSRFSGSGSGTDYTLTISSLQPEDFATYYCQQGNTLPWTFGQGTKVEIKSSASTKGPSVFPLAPSSKSTSGGTAALGCLVKDYFPEPVTVSWNSGALTSGVHTFPAVLQSSGLYSLSSVVTVPSSSLGTQTYICNVNHKPSNTKVDKKVEPKSC
chain 4: not shown
B5: 2+1 IgG Crossfab, inverted; CL/CH1 exchange (LC007/V9), anti-MCSP/anti-huCD3 (bispecific antibody)
chain 1: B1 chain 2
chain 2: B2 chain 2
chain 3: B4 chain 3
chain 4: not shown
B6: 1+1 IgG-Crossfab light chain fusion (CH1A1A/V9), anti-CEA/anti-huCD3 (bispecific antibody)
chain 1: B4 chain 3
chain 2: DIQMTQSPSSLSASVGDRVTITCKASAAVGTYVAWYQQKPGKAPKLLIYSASYRKRGVPSRFSGSGSGTDFTLTISSLQPEDFATYYCHQYYTYPLFTFGQGTKLEIKRTVAAPSVFIFPPSDEQLKSGTASVVCLLNNFYPREAKVQWKVDNALQSGNSQESVTEQDSKDSTYSLSSTLTLSKADYEKHKVYACEVTHQGLSSPVTKSFNRGECGGGGSGGGGSGGGGSGGGGSEVQLVESGGGLVQPGGSLRLSCAASGYSFTGYTMNWVRQAPGKGLEWVALINPYKGVSTYNQKFKDRFTISVDKSKNTAYLQMNSLRAEDTAVYYCARSGYYGDSDWYFDVWGQGTLVTVSSASVAAPSVFIFPPSDEQLKSGTASVVCLLNNFYPREAKVQWKVDNALQSGNSQESVTEQDSKDSTYSLSSTLTLSKADYEKHKVYACEVTHQGLSSPVTKSFNRGEC
chain 3: not shown
chain 4: DKTHTCPPCPAPEAAGGPSVFLFPPKPKDTLMISRTPEVTCVVVDVSHEDPEVKFNWYVDGVEVHNAKTKPREEQYNSTYRVVSVLTVLHQDWLNGKEYKCKVSNKALGAPIEKTISKAKGQPREPQVCTLPPSRDELTKNQVSLSCAVKGFYPSDIAVEWESNGQPENNYKTTPPVLDSDGSFFLVSKLTVDKSRWQQGNVFSCSVMHEALHNHYTQKSLSLSPGK

Key:
Experiment in all cases: cell-based or functional assay
[1] = molecular target: T2, human MCSP (Melanoma-associated Chondroitin Sulfate Proteoglycan) on cells (human, UniProt Q6UVK1 30-2322)
T2 sequence (Q6UVK1 30-2322): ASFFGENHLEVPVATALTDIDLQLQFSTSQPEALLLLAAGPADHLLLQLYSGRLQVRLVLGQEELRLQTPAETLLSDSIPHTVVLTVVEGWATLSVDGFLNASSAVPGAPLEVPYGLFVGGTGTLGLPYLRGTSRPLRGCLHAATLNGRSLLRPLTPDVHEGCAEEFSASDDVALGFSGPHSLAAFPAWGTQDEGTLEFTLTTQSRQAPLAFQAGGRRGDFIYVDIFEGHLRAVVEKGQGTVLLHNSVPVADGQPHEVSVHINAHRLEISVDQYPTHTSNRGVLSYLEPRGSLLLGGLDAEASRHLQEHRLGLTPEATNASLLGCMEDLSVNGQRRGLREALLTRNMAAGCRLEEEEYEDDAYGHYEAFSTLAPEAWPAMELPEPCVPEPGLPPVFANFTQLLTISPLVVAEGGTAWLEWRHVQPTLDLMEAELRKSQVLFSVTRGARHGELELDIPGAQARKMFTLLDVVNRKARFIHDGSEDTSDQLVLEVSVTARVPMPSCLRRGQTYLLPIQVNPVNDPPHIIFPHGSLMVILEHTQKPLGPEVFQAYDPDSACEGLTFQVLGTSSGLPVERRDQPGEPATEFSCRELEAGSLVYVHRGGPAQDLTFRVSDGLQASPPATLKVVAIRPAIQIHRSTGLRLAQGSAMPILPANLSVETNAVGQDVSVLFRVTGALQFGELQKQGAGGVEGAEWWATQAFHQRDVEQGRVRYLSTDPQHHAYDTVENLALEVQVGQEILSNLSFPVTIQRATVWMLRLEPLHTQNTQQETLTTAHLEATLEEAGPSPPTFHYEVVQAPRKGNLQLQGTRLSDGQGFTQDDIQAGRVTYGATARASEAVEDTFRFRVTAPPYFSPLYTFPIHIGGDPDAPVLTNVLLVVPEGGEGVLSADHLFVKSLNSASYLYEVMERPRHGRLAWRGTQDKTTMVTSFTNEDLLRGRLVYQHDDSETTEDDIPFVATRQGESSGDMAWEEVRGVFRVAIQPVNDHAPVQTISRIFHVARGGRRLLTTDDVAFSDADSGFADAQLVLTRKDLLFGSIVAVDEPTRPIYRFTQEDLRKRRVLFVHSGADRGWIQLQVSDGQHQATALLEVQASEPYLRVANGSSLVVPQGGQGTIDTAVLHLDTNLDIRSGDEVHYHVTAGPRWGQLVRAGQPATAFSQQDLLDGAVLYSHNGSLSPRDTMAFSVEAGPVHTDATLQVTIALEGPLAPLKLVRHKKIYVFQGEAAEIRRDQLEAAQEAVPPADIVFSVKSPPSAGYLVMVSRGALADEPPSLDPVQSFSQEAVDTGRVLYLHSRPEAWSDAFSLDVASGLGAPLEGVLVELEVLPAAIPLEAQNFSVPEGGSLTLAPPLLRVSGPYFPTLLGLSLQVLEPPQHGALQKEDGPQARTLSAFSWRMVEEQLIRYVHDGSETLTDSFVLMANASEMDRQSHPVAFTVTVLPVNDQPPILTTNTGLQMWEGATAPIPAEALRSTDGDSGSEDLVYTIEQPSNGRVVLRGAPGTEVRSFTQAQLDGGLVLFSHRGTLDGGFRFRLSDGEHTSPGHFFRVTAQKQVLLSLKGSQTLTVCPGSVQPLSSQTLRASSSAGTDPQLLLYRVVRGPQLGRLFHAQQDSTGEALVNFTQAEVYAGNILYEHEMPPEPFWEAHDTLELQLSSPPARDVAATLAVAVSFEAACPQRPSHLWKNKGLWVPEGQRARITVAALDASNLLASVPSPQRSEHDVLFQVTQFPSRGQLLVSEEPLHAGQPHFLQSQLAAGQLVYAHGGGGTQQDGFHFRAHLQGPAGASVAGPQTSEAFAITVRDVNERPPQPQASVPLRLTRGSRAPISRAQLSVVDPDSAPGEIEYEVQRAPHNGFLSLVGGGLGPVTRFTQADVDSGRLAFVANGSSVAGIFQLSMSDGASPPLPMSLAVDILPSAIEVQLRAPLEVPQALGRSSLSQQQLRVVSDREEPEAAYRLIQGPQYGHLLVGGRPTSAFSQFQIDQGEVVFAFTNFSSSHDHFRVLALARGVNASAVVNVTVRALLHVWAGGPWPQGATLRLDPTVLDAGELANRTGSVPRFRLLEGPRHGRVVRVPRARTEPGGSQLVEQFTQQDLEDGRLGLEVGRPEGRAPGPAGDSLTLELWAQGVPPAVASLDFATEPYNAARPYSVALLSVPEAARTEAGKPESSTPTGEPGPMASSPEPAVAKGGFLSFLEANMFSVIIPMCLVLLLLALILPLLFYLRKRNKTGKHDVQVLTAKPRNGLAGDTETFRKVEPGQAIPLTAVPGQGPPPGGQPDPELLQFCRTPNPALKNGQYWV

[2] = molecular target: T2, human MCSP (Melanoma-associated …); remark: listed apart in the source
[3] = molecular target: T1, human CEA (Carcinoembryonic antigen) on …

Binder | EC50 of T cell-mediated killing (LDH release) of MV-3 cells, human PBMCs, 21 h [1] [nM] | EC50 of T cell-mediated killing (LDH release) of WM266-4 cells, human PBMCs, 21 h [1] [nM] | EC50 [pM] of T cell-mediated killing (LDH release) of MV-3 cells, human PBMCs, about 24 h [2] [pM] | EC50 [pM] of T cell-mediated killing (LDH release) of WM266-4 cells, human PBMCs, about 24 h [2] [pM] | EC50 of T cell-mediated killing (LDH release) of LS-174T cells, human PBMCs, 28 h [3] [nM] | EC50 of T cell-mediated killing (LDH release) of MKN-45 cells, human PBMCs, 28 h [3] [nM] | EC50 of T cell-mediated killing (LDH release) of MC38-huCEA cells, human PBMCs, 24 h [3] [nM]
B1 | 0.0092 | 0.0331 | 10 | 12.4 | – | – | –
B2 | – | – | 11 | 11.3 | – | – | –
B3 | – | – | 3 | 7.1 | – | – | –
B4 | – | – | – | – | 0.673 | 0.115 | –
B5 | – | – | 4.1 | 3.7 | – | – | –
B6 | – | – | – | – | 1.56 | 0.213 | ~3.2
